Assay [1] deals with MDM2 SWIB domain from Takifugu rubripes (Japanese puffer) (Takifugu rubripes (Japanese puffer)). The assay can be described thus: fluorescence polarisation; displacement: complex of MDM2 (0.2-2 μM) and FITC-p53TAD_(human)^15–26 (15 nM) displaced by increasing unlabeled p53TAD peptide or p53TAD^full-length; KD calculated from IC50 (Nikolovska-Coleska et al. 2004); 20 mM sodium phosphate pH 7.4, 150 mM NaCl, 1 mM TCEP.

Assay [2] deals with MDM2_(H.sapiens) SWIB domain (Homo sapiens (human)). The assay is described as above.
Assay [3] concerns the target MDM2 SWIB domain from Oncorhynchus kisutch (coho salmon) (Oncorhynchus kisutch (coho salmon)). The assay is described as above.
Assay [4] concerns the target T1, MDM2_(D.rerio) SWIB domain (Danio rerio (zebrafish)).
T1 chain: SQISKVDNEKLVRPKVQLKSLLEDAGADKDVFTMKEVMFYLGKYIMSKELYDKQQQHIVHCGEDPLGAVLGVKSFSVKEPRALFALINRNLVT
Briefly: FP. To be noted: modification not given.

Assay [5] concerns the target MDM2 SWIB domain from Channa argus (Channa argus). The assay can be described thus: fluorescence polarisation; displacement: complex of MDM2 (0.2-2 μM) and FITC-p53TAD_(human)^15–26 (15 nM) displaced by increasing unlabeled p53TAD peptide or p53TAD^full-length; KD calculated from IC50 (Nikolovska-Coleska et al. 2004); 20 mM sodium phosphate pH 7.4, 150 mM NaCl, 1 mM TCEP.

The target of assay [6] is MDM2 SWIB domain from Anguilla anguilla (European eel) (Anguilla anguilla (European eel)). The description is as above.
Assay [7] concerns the target MDM2 SWIB domain from Clupea harengus (Atlantic herring) (Clupea harengus (Atlantic herring)). The description is as above.
Assay [8] addresses MDM2 SWIB domain from Maylandia zebra (Maylandia zebra). Described as above.
Assay [9] has as its target MDM2 SWIB domain from Lepisosteus oculatus (spotted gar) (Lepisosteus oculatus (spotted gar)). The description is as above.

Where no end group is shown, it is not given here.

In publication PMC10901556, “Conservation of Affinity Rather Than Sequence Underlies a Dynamic Evolution of the Motif-Mediated p53/MDM2 Interaction in Ray-Finned Fishes” (Molecular Biology and Evolution, 2024) one finds Kd data, which are given here for 18 molecules.

By Kd is commonly meant the concentration at which binding is half-saturated.

B1: Takifugu rubripes (Japanese puffer) p53TADP1 p53TAD^15–27 (peptide)
peptide: Ac-SQDTFQDLWENVA
On to B1, for which the Kd in [1] is 4500 nM; in [2], 1700 nM.

B2: Oncorhynchus kisutch (coho salmon) p53TADP1a p53TAD^15–27 (peptide)
peptide: Ac-GQCSFQQLWESNM
As to B2, the Kd in [2] was 3150 nM; in assay [3] it was 2100 nM.

B3: p53TAD_(D.rerio)^41-55 (peptide)
chain: IINDEEYLPGSFDPN
The molecule B3 registered a Kd in assay [4] above 200000 nM.

B4: Channa argus p53TADP1 p53TAD^15–27 (peptide)
peptide: Ac-SQDSFRELWESVV
On to B4, for which the Kd in [5] is 3300 nM; in [2] it was 1100 nM.

B5: p53TAD_(D.rerio)^30-44 (peptide)
chain: IQPPGGGSCWDIIND
B5 returned a Kd in assay [4] above 200000 nM.

B6: Anguilla anguilla p53TADP2 p53TAD^15–27 (peptide)
peptide: Ac-SQDETFQALWNTVT
Consider B6, for which the Kd was 770 nM in [2] and 1200 nM in [6].

B7: p53TAD_(D.rerio)^35-49 (peptide)
chain: GGSCWDIINDEEYLP
B7 came in with an equilibrium dissociation constant (Kd) in assay [4] above 200000 nM.

B8: Clupea harengus (Atlantic herring) p53TADP1 p53TAD^15–27 (peptide)
peptide: Ac-SQGTFDEIWASNF
With B8, the Kd is 1250 nM in [2] and 2600 nM in assay [7].

B9: Maylandia zebra p53TADP1 p53TAD^15–27 (peptide)
peptide: Ac-SQDSFKELWDQLP
Regarding B9, the Kd in assay [8] is 1600 nM; in assay [2], 270 nM.

B10: p53TAD_(D.rerio)^49-63 (peptide)
chain: PGSFDPNFFENVLEE
For the molecule B10, the Kd in assay [4] came out at 210000 nM.

B11: p53TAD_(D.rerio)^14-26 (peptide)
chain: DSQEFAELWEKN
In the case of B11, the Kd in assay [4] is above 200000 nM.

B12: p53TAD_(D.rerio)^21-35 (peptide)
chain: ELWEKNLISIQPPGG
As to B12, the Kd in assay [4] is above 200000 nM.

B13: Anguilla anguilla (European eel) p53TADP1 p53TAD^15–27 (peptide)
peptide: Ac-SQESFQELWKMMC
For the molecule B13, the Kd in assay [2] was 13 nM; in [6], 190 nM.

B14: Danio rerio (zebrafish) p53TADP2 p53TAD^15–27 (peptide)
peptide: Ac-SQEFAELWEKNL
For the molecule B14, the Kd in assay [2] is 4330 nM.

B15: p53TAD_(D.rerio)^12-55 (peptide)
chain: QNDSQEFAELWEKNLISIQPPGGGSCWDIINDEEYLPGSFDPN
As for B15, the dissociation constant (Kd) in assay [4] was 33 nM.

B16: Oncorhynchus kisutch p53TADP1b p53TAD^15–27 (peptide)
peptide: Ac-SQGSFQQLWETNM
In the case of B16, the figures for the Kd in assay [2] and in assay [3] were 5150 nM and 3500 nM, respectively.

B17: Oncorhynchus kisutch p53TADP2 p53TAD^15–27 (peptide)
peptide: Ac-SQESFEDLWKMNL
For the molecule B17, the values for the Kd in assay [2] and in assay [3] were 790 nM and 1160 nM, respectively.

B18: Lepisosteus oculatus (spotted gar) p53TAD^15–27 (peptide)
peptide: Ac-SQESFQELWNMVI
As for B18, the Kd in assay [2] was 121 nM; in [9], 390 nM.
